Measurements taken from article PMC11865311.

Biological target: CD11b (alpha subunit of the Mac-1 receptor, CD11b/CD18) (human (endogenous in neutrophils)) (UniProt P11215)

Candida albicans secreted aspartyl protease 6 (Sap6) (from UniProt Q5AC08 19-418) (enzyme)
ROS production after PMA in neutrophils incubated with Sap6 1200 ng/ml with CD11b blocked by an antibody, relative to PMA-stimulated control neutrophils (50% without the blockade): 85%
